# Patent US20240229081
# System: Nla type I-C Cascade-Cas3 in E. coli (Neisseria lactamica)
# Assay: cell_activity
# Details: PAM TTC; E. coli plasmid interference
substance,measurement,value
"Nla native CRISPR spacer 1 crRNA ; spacer 1 target with TTC PAM, plasmid",activity,1000 fold
